Article PMC3109874

Target: dicamba monooxygenase (DMO) (Stenotrophomonas (formerly Pseudomonas) maltophilia, strain DI-6) (UniProt Q5S3I3)
Experiment: crystal structure

Question: “dicamba monooxygenase (DMO) (from UniProt Q5S3I3 2-339) (enzyme)” was tested. Which stoichiometry N did it give?
Answer: 3
